# Laboratory results as given in patent publication US12180485B2, “Repressible control of gene expression” (TRUSTEES OF BOSTON UNIVERSITY, priority 2020, dated 2024).
# Entries after “also recorded” stand apart in the source; their conditions may differ.
# B1: 177/178: RfxCas13d split pair at 177/178 (protein)
# chain 1: IEKKKSFAKGMGVKSTLVSGSKVYMTTFAEGSDARLEKIVEGDSIRSVNEGEAFSAEMADKNAGYKIGNAKFSHPKGYAVVANNPLYTGPVQQDMLGLKETLEKRYFGESADGNDNICIQVIHNILDIEKILAEYITNAAYAVNNISGLDKDIIGFGKFSTVYTYDEFKDPEHHRAA
# chain 2: FNNNDKLINAIKAQYDEFDNFLDNPRLGYFGQAFFSKEGRNYIINYGNECYDILALLSGLRHWVVHNNEEESRISRTWLYNLDKNLDNEYISTLNYLYDRITNELTNSFSKNSAANVNYIAETLGINPAEFAEQYFRFSIMKEQKNLGFNITKLREVMLDRKDMSEIRKNHKVFDSIRTKVYTMMDFVIYRYYIEEDAKVAAANKSLPDNEKSLSEKDIFVINLRGSFNDDQKDALYYDEANRIWRKLENIMHNIKEFRGNKTREYKKKDAPRLPRILPAGRDVSAFSKLMYALTMFLDGKEINDLLTTLINKFDNIQSFLKVMPLIGVNAKFVEEYAFFKDSAKIADELRLIKSFARMGEPIADARRAMYIDAIRILGTNLSYDELKALADTFSLDENGNKLKKGKHGMRNFIINNVISNKRFHYLIRYGDPAHLHEIAKNEAVVKFVLGRIADIQKKQGQNGKNQIDRYYETCIGKDKGKSVSEKVDALTKIITGMNYDQFDKKRSVIEDTGRENAEREKFKKIISLYLTVIYHILKNIVNINARYVIGFHCVERDAQLYKEKGYDINLKKLEEKGFSSVTKLCAGIDETAPDKRKDVEKEMAERAKESIDSLESANPKLYANYIKYSDEKKAEEFTRQINREKAKTALNAYLRNTKWNVIIREDLLRIDNKTCTLFRNKAVHLEVARYVHAYINDIAEVNSYFQLYHYIMQRIIMNERYEKSSGKVSEYFDAVNDEKKYNDRLLKLLCVPFGYCIPRFKNLSIEALFDRNEAAKFDKEKKKVSGNS
# B2: 559/560: RfxCas13d split between residues 559/560; N and C fragments plain or fused to CID domains (protein)
# chain 1: IEKKKSFAKGMGVKSTLVSGSKVYMTTFAEGSDARLEKIVEGDSIRSVNEGEAFSAEMADKNAGYKIGNAKFSHPKGYAVVANNPLYTGPVQQDMLGLKETLEKRYFGESADGNDNICIQVIHNILDIEKILAEYITNAAYAVNNISGLDKDIIGFGKFSTVYTYDEFKDPEHHRAAFNNNDKLINAIKAQYDEFDNFLDNPRLGYFGQAFFSKEGRNYIINYGNECYDILALLSGLRHWVVHNNEEESRISRTWLYNLDKNLDNEYISTLNYLYDRITNELTNSFSKNSAANVNYIAETLGINPAEFAEQYFRFSIMKEQKNLGFNITKLREVMLDRKDMSEIRKNHKVFDSIRTKVYTMMDFVIYRYYIEEDAKVAAANKSLPDNEKSLSEKDIFVINLRGSFNDDQKDALYYDEANRIWRKLENIMHNIKEFRGNKTREYKKKDAPRLPRILPAGRDVSAFSKLMYALTMFLDGKEINDLLTTLINKFDNIQSFLKVMPLIGVNAKFVEEYAFFKDSAKIADELRLIKSFARMGEPIADARRAMYIDAIRILGTNL
# chain 2: SYDELKALADTFSLDENGNKLKKGKHGMRNFIINNVISNKRFHYLIRYGDPAHLHEIAKNEAVVKFVLGRIADIQKKQGQNGKNQIDRYYETCIGKDKGKSVSEKVDALTKIITGMNYDQFDKKRSVIEDTGRENAEREKFKKIISLYLTVIYHILKNIVNINARYVIGFHCVERDAQLYKEKGYDINLKKLEEKGFSSVTKLCAGIDETAPDKRKDVEKEMAERAKESIDSLESANPKLYANYIKYSDEKKAEEFTRQINREKAKTALNAYLRNTKWNVIIREDLLRIDNKTCTLFRNKAVHLEVARYVHAYINDIAEVNSYFQLYHYIMQRIIMNERYEKSSGKVSEYFDAVNDEKKYNDRLLKLLCVPFGYCIPRFKNLSIEALFDRNEAAKFDKEKKKVSGNS
# B3: SEQ ID NO: 800: inducible system polypeptide, probably Table 20 (GID-GAI) (protein)
# chain: MAPKKKRKVGIHGVPAAKRDHHHHHHQDKKTMMMNEEDDGNGMDELLAVLGYKVRSSEMADVAQKLEQLEVMMSNVQEDDLSQLATETVHYNPAELYTWLDSMLTDLNSGGSGSGSSGGSGTALADTFSLDENGNKLKKGKHGMRNFIINNVISNKRFHYLIRYGDPAHLHEIAKNEAVVKFVLGRIADIQKKQGQNGKNQIDRYYETCIGKDKGKSVSEKVDALTKIITGMNYDQFDKKRSVIEDTGRENAEREKFKKIISLYLTVIYHILKNIVNINARYVIGFHCVERDAQLYKEKGYDINLKKLEEKGFSSVTKLCAGIDETAPDKRKDVEKEMAERAKESIDSLESANPKLYANYIKYSDEKKAEEFTRQINREKAKTALNAYLRNTKWNVIIREDLLRIDNKTCTLFRNKAVHLEVARYVHAYINDIAEVNSYFQLYHYIMQRIIMNERYEKSSGKVSEYFDAVNDEKKYNDRLLKLLCVPFGYCIPRFKNLSIEALFDRNEAAKFDKEKKKVSGNSSGSGPKKKRKV
# B4: SEQ ID NO: 797: inducible system polypeptide, probably Table 20 (GID-GAI) (protein)
# chain: MLDLASLILIEKKKSFAKGMGVKSTLVSGSKVYMTTFAEGSDARLEKIVEGDSIRSVNEGEAFSAEMADKNAGYKIGNAKFSHPKGYAVVANNPLYTGPVQQDMLGLKETLEKRYFGESADGNDNICIQVIHNILDIEKILAEYITNAAYAVNNISGLDKDIIGFGKFSTVYTYDEFKDPEHHRAAFNNNDKLINAIKAQYDEFDNFLDNPRLGYFGQAFFSKEGRNYIINYGNECYDILALLSGLRHWVVHNNEEESRISRTWLYNLDKNLDNEYISTLNYLYDRITNELTNSFSKNSAANVNYIAETLGINPAEFAEQYFRFSIMKEQKNLGFNITKLREVMLDRKDMSEIRKNHKVFDSIRTKVYTMMDFVIYRYYIEEDAKVAAANKSLPDNEKSLSEKDIFVINLRGSFNDDQKDALYYDEANRIWRKLENIMHNIKEFRGNKTREYKKKDAPRLPRILPAGRDVSAFSKLMYALTMFLDGKEINDLLTTLINKFDNIQSFLKVMPLIGVNAKFVEEYAFFKDSAKIADELRLIKSFARMGEPIADARRAMYIDAIRILGTNLSGGSGSGSSGGSGTMAASDEVNLIESRTVVPLNTWVLISNFKVAYNILRRPDGTFNRHLAEYLDRKVTANANPVDGVFSFDVLIDRRINLLSRVYRPAYADQEQPPSILDLEKPVDGDIVPVILFFHGGSFAHSSANSAIYDTLCRRLVGLCKCVVVSVNYRRAPENPYPCAYDDGWIALNWVNSRSWLKSKKDSKVHIFLAGDSSGGNIAHNVALRAGESGIDVLGNILLNPMFGGNERTESEKSLDGKYFVTVRDRDWYWKAFLPEGEDREHPACNPFSPRGKSLEGVSFPKSLVVVAGLDLIRDWQLAYAEGLKKAGQEVKLMHLEKATVGFYLLPNNNHFHNVMDEISAFVNAECLDLASLIL
# B5: 655/656: RfxCas13d split pair at 655/656, plain or fused to CID domains (protein)
# chain 1: IEKKKSFAKGMGVKSTLVSGSKVYMTTFAEGSDARLEKIVEGDSIRSVNEGEAFSAEMADKNAGYKIGNAKFSHPKGYAVVANNPLYTGPVQQDMLGLKETLEKRYFGESADGNDNICIQVIHNILDIEKILAEYITNAAYAVNNISGLDKDIIGFGKFSTVYTYDEFKDPEHHRAAFNNNDKLINAIKAQYDEFDNFLDNPRLGYFGQAFFSKEGRNYIINYGNECYDILALLSGLRHWVVHNNEEESRISRTWLYNLDKNLDNEYISTLNYLYDRITNELTNSFSKNSAANVNYIAETLGINPAEFAEQYFRFSIMKEQKNLGFNITKLREVMLDRKDMSEIRKNHKVFDSIRTKVYTMMDFVIYRYYIEEDAKVAAANKSLPDNEKSLSEKDIFVINLRGSFNDDQKDALYYDEANRIWRKLENIMHNIKEFRGNKTREYKKKDAPRLPRILPAGRDVSAFSKLMYALTMFLDGKEINDLLTTLINKFDNIQSFLKVMPLIGVNAKFVEEYAFFKDSAKIADELRLIKSFARMGEPIADARRAMYIDAIRILGTNLSYDELKALADTFSLDENGNKLKKGKHGMRNFIINNVISNKRFHYLIRYGDPAHLHEIAKNEAVVKFVLGRIADIQKKQGQNGKNQIDRYYETCIGK
# chain 2: DKGKSVSEKVDALTKIITGMNYDQFDKKRSVIEDTGRENAEREKFKKIISLYLTVIYHILKNIVNINARYVIGFHCVERDAQLYKEKGYDINLKKLEEKGFSSVTKLCAGIDETAPDKRKDVEKEMAERAKESIDSLESANPKLYANYIKYSDEKKAEEFTRQINREKAKTALNAYLRNTKWNVIIREDLLRIDNKTCTLFRNKAVHLEVARYVHAYINDIAEVNSYFQLYHYIMQRIIMNERYEKSSGKVSEYFDAVNDEKKYNDRLLKLLCVPFGYCIPRFKNLSIEALFDRNEAAKFDKEKKKVSGNS
# What was measured:
# mCherry = mCherry knockdown by inducible split RfxCas13d (ON switch) in transfected HEK 293 FT cells, flow cytometry; assay type: cell-based; conditions: for performance after NES/NLS compartmentalization: GIB induced split pairs, NES on one moiety, NLS on the other; for knockdown across the various CID systems: split pairs coupled with CID domains, with inducer
# [1] = system: mCherry expression in HEK293 FT cells; assay: Inducible split RfxCas13d (GIB, RAP, ABA, Dano, GRZ CID domains; NES/NLS variants) mCherry knockdown, leakiness and inducibility; assay type: cell-based; conditions: inducible polypeptide systems of Tables 18-22
# In short: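 mCherry knockdown in HEK293 FT cells by split RfxCas13d halves fused to GIB, RAP, ABA, Dano or GRZ dimerization domains, scored with and without inducer. Leakiness score and induced activity were derived per split site; NES/NLS compartmentalization and reversed CID orientation were also tested.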
Molecule,performance after NES/NLS compartmentalization (mCherry),knockdown across the various CID systems (mCherry),performance in the tested conditions [1],also measured
B1,–,–,–,knockdown with assistance of gRNA (mCherry; mCherry): relatively efficient knockdown
B2,high inducibility with minimal leakiness,efficient knockdown; also recorded: consistently strong drug-induced knockdown,–,"induced knockdown (mCherry; Danoprevir-inducible, 2 NESs on N terminal moiety and 2 NLSs on C terminal moiety): over 60%; performance of reversed CID orientation versus original orientation (mCherry; GIB: N ss-GAI/GID-ss C, ABA: N ss-PYL/ABI-ss C): stronger inducibility and weaker leakiness; target knockdown efficiency (mCherry; split pair): more than 80%"
B3,–,–,highest performance,–
B4,–,–,highest performance,–
B5,high inducibility with minimal leakiness,efficient knockdown; also recorded: consistently strong drug-induced knockdown,–,–
